The data set deals with the molecule itself. The data set is described as follows: cryo-EM structure; 30 uM ParM in polymerisation buffer (30 mM Tris-HCl, 25 mM KCl, 2 mM MgCl2, 1 mM DTT, pH 7.5) with 5 mM AMPPNP, 5 min at room temperature; filaments spun down and resuspended; helical reconstruction at 8.5 Å.

B1: ParM (actin-like protein of the ParMRC system of Escherichia coli R1 plasmid), wild type (natural protein)
chain: MLVFIDDGSTNIKLQWQESDGTIKQHISPNSFKREWAVSFGDKKVFNYTLNGEQYSFDPISPDAVVTTNIAWQYSDVNVVAVHHALLTSGLPVSEVDIVCTLPLTEYYDRNNQPNTENIERKKANFRKKITLNGGDTFTIKDVKVMPESIPAGYEVLQELDELDSLLIIDLGGTTLDISQVMGKLSGISKIYGDSSLGVSLVTSAVKDALSLARTKGSSYLADDIIIHRKDNNYLKQRINDENKISIVTEAMNEALRKLEQRVLNTLNEFSGYTHVMVIGGGAELICDAVKKHTQIRDERFFKTNNSQYDLVNGMYLIGN
notes: ParM, plasmid segregation protein of actin fold, encoded by Escherichia coli R1 plasmid; Forms double-helical filaments of two protofilaments with AMPPNP or ATP; also called ParM protein; wild type protein; source: E. coli BL21-AI, plasmid pJSC1, in cell lysate for the polymerisation assay
As to B1, the binding result is given as “binds”.

For the origin of these results see publication PMC3794156, “Structure of the ParM filament at 8.5 Å resolution” (Journal of Structural Biology, 2013).
